One block for each binder: values may come before it.
Assays:
[1] = molecular target: T1, Peptide B (human PAR-2), unbiotinylated (Human); assay: SPR, antibody captured
T1 construct: also called Peptide B No Biotin
T1 peptide: SLIGKVDGTSHVTG

[2] = molecular target: T2, C-terminal biotinylated human PAR-2 14-mer peptide SEQ ID NO:887 (Val-42 and Asp-43 to Ala) (human, not fully specified; C-terminal biotin (K-B)); assay: BLI Exp2
T2 peptide: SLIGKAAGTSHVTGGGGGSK
Procedure: (§1) In order to more particularly identify the amino acids of PAR-2 with which the PAR-2 antibodies interact, an alanine scanning study was carried out using peptides comprising the activating PAR-2 protease cleavage site.
(§2) The ability of each peptide mutant to bind to PAR-2 antibodies was measured using biolayer interferometry (Octet Red; ForteBio). Each peptide (2.5 μg/ml) was captured on streptavidin coated biosensor tips (Octet SA sensor) for 10 seconds. To measure binding and dissociation between each peptide and PAR-2 antibody, the peptide-coated biosensors were contacted with 200 nM solutions of PAR-2 antibodies for 5 minutes (binding) followed by transfer to buffer with no antibody for 10 min (dissociation). […] The results are expressed as percent binding and percent T_{1/2} relative to WT peptide (Tables 24-28).

[3] = molecular target: T3, C-terminal biotinylated human PAR-2 peptide SEQ ID NO:879 (Val-42 to Ala) (human, not fully specified; C-terminal biotin (K-B)); assay: BLI Exp2
T3 construct: alanine-scan mutant
T3 peptide: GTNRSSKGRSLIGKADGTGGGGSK
Procedure: as §1, §2

[4] = molecular target: T4, C-terminal biotinylated human PAR-2 peptide SEQ ID NO:871 (wild-type) (human, not fully specified; C-terminal biotin (K-B)); assay: BLI Exp2
T4 construct: also called WT peptide
T4 peptide: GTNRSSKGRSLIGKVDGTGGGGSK
Procedure: as §1, §2

[5] = molecular target: T5, C-terminal biotinylated human PAR-2 peptide SEQ ID NO:872 (Gly-35 to Ala) (human, not fully specified; C-terminal biotin (K-B)); assay: BLI Exp2
T5 construct: alanine-scan mutant
T5 peptide: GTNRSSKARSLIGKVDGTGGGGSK
Procedure: as §1, §2

[6] = molecular target: T6, C-terminal biotinylated human PAR-2 peptide SEQ ID NO:873 (Arg-36 to Ala) (human, not fully specified; C-terminal biotin (K-B)); assay: BLI Exp2
T6 construct: alanine-scan mutant
T6 peptide: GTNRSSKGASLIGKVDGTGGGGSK
Procedure: as §1, §2

[7] = molecular target: full length human PAR-2 (human, UniProt P55085 26-397); assay: cell-based or functional assay
Sequence of full length human PAR-2 (P55085 26-397 G138A limits assumed): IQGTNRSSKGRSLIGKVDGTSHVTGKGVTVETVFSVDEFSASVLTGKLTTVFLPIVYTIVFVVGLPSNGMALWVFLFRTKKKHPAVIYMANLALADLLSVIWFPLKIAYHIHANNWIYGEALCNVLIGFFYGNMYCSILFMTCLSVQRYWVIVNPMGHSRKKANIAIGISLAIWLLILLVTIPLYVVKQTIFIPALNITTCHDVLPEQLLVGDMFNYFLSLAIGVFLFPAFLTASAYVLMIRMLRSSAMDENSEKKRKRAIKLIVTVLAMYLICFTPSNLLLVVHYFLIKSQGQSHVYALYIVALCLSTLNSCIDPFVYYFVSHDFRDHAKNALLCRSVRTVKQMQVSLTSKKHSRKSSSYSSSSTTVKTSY

[8] = molecular target: monkey PAR-2 (monkey); assay: cell-based or functional assay
[9] = molecular target: rat PAR-2 (rat, UniProt Q63645 37-397); assay: cell-based or functional assay
Sequence of rat PAR-2 (Q63645 37-397): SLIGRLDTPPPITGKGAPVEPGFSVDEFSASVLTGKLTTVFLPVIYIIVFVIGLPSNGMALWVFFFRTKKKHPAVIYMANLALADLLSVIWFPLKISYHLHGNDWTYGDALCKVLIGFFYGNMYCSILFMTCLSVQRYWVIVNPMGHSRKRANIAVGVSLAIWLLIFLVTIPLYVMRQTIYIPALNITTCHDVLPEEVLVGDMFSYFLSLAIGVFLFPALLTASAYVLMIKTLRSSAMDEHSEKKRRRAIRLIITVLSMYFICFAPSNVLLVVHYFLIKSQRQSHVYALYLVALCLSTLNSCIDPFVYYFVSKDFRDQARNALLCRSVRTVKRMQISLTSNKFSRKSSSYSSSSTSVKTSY

[10] = molecular target: T1, Peptide B (human PAR-2), unbiotinylated; assay: SPR, antibody captured
Procedure: Equilibrium dissociation constants (KD values) for antigen binding to selected purified PAR-2 antibodies were determined by surface kinetics using a real-time surface plasmon resonance biosensor assay. Antibody was captured on either a rabbit anti-mouse IgG polyclonal antibody (GE Healthcare, Piscataway, N.J.) surface or a goat anti-human IgG polyclonal antibody (Jackson Immuno Research Lab, West Grove, Pa.) surface created through direct amine chemical coupling to a BIACORE™ CM5 sensor chip to form a captured antibody surface. […] Antigen-antibody binding and dissociation were monitored in real time at room temperature. Kinetic analysis was performed to calculate KD and half-life of antigen/antibody complex dissociation (Table 10). For those antibodies where no T_{1/2} value is shown, steady state analysis was used to calculate the KD value. NB: no binding observed under current experimental conditions. ND: not determined.

[11] = molecular target: T7, Peptide F (monkey PAR-2), N-terminal biotinylated (Monkey (Macaca mulatta), N-terminal biotin via G4S linker); assay: SPR, antibody captured
T7 construct: also called Peptide F N-Term
T7 sequence (peptide, as listed by the source): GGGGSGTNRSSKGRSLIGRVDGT

B1: H4H583P (antibody, human IgG4, V domains shown)
VH: QVQLVESGGGVVQPGMSLRLSCTASGFTFRRYGMHWVRQAPGKGLEWVAVIWYDGSNKYYADSVKGRFTITRDNSKNTLYLQMNSLRAEDTAIYFCASEITIGDWFDPRGQGTLVTVSS
VL: AIQMTQSPSSLSASVGDRVTITCRASQGIRNDLGWFQQKPGKVPKLLIYAASTLHSGVPSRFSGSGFGTDFTLTISSLQPEDFATYYCLQDFNYPLTFGGGTKVEIK
notes: also called H1H583P variable regions
binding result [1]: no binding (tested: 15.6 to 250 nM peptide)

binding result [2]: no binding (tested: 200 nM antibody)
% Rel Binding [3]: 46%
% Rel T1/2 [3]: 1%
% Rel Binding [4]: 100%
% Rel T1/2 [4]: 100%
% Rel Binding [5]: 97%
% Rel T1/2 [5]: 117%
% Rel Binding [6]: 105%
% Rel T1/2 [6]: 90%
H4H581P IC50, NF-kB-luciferase, Bovine Factor Xa [7]: 2.5 nM
H4H581P IC50, NF-kB-luciferase, Human Factor Xa [7]: 1.1 nM
H4H581P IC50, NF-kB-luciferase, Human Kallikrein 5 [7]: 0.9 nM
H4H581P IC50, NF-kB-luciferase, Human Kallikrein 14 [7]: 1.2 nM
H4H581P IC50, NF-kB-luciferase, Human Pancreatic Trypsin [7]: 1.9 nM
H4H581P IC50, NF-kB-luciferase, Tryptase [7]: 3.5 nM
H4H581P IC50, NF-kB-luciferase, Bovine Factor Xa [8]: 0.9 nM
H4H581P IC50, NF-kB-luciferase, Human Kallikrein 5 [8]: 11 nM
H4H581P IC50, NF-kB-luciferase, Human Kallikrein 14 [8]: 11.6 nM
H4H581P IC50, NF-kB-luciferase, Human Pancreatic Trypsin [8]: 5.4 nM
H4H581P IC50, NF-kB-luciferase, Human Pancreatic Trypsin [9]: 700 nM
B2: H4H581P (antibody, human IgG4, V domains shown)
VH: QVQLVESGGGVVQPGRSLRLSCVASGFTFSRYGIHWVRQAPGKGLEWVIVISYDGINKYYADSVKGRFTISRDNSKNTVYLQMNSLRAEDTAVYYCAKGDFWSGYFDYWGQGTLVTVSS
VL: DIVMTQTPLSSPVTLGQPASISCRSSQSLVHSDGNTYLSWLHQRPGQPPRLLIYKISNRFSGVPDRFSGSGAGTDFTLQISRVEAEDVGIYYCMQATQFPTFGGGTKVEIK
notes: also called mAb H4H581P; H1H581P variable regions

binding result [2]: no binding (tested: 200 nM antibody)
% Rel Binding [3]: 52%
% Rel T1/2 [3]: 0%
% Rel Binding [4]: 100%
% Rel T1/2 [4]: 100%
% Rel Binding [5]: 99%
% Rel T1/2 [5]: 253%
% Rel Binding [6]: 115%
% Rel T1/2 [6]: 180%
Kd [10]: 84 nM
T1/2 [10]: 9 min
Kd [11]: 7.1 nM
T1/2 [11]: 24 min
B3: H4H588N (antibody, human IgG4, V domains shown)
VH: EVQLLESGGGLVQPGGSLRLSCAASGFTFSSYAMTWVRQAPGKGLYWVSAISGGRGSAYYADSVKGRFTISRDNSKNTLYLQMNSLRAEDTAVYYCAKEGDSGYDLAYWGRGTLVTVSS
VL: DIQMTQSPSSLSASVGDRVTITCRARQGISNNLAWLQQKPGKAPKSLIYAASSLQSGIPSKFSGSGSGTYFTLTISSLQPEDFATYYCQQYKSSPLTFGGGTKVEIK
notes: also called H2M588N variable regions

From patent US20110059095A1 (Regeneron, published 2011)
